Article PMC11314397, “Purification and Characterization of Proteinaceous Thermostable α-Amylase Inhibitor from Sardinian Common Bean Nieddone Cultivar (Phaseolus vulgaris L.)” (Plants, 2024)

Tests used:
[1] = molecular target: T1, α-amylase from porcine pancreas (porcine, UniProt P00690 16-511); test: enzyme inhibition kinetics (Lineweaver-Burk); porcine α-amylase with 0, 0.25 and 0.50 µM α-AI, CNP-G3 0.1 to 5 mM as substrate, 250 mM sodium phosphate pH 6.5, 60 mM NaCl, 5 mM CaCl2, 500 mM KSCN, 37 °C, 10 min preincubation; mixed-type inhibition; conditions: both partners purified
T1 construct: pancreatic α-amylase, pig, from porcine pancreas; also called porcine pancreatic α-amylase; pig α-amylase; source: bought: Sigma-Aldrich (Type VI-B A3176-2.5MU)
T1 sequence (looked up): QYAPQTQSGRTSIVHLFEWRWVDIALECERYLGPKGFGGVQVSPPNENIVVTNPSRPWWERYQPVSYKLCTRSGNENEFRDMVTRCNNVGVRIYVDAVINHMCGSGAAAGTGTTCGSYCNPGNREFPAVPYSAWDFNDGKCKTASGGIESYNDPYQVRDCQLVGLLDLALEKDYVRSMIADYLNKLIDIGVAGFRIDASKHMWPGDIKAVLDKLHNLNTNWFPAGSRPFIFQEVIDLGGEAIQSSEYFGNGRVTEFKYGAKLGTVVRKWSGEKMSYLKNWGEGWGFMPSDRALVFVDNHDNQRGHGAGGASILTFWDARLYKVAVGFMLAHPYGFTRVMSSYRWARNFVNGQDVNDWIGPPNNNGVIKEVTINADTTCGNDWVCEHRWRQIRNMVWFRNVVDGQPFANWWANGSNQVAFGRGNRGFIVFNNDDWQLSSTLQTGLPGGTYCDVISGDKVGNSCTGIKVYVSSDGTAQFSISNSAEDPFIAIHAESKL

[2] = molecular target: α-amylase from Tenebrio molitor (Tenebrio molitor (endogenous in larvae)) (UniProt P56634)
Sequence of α-amylase from Tenebrio molitor (Tenebrio molitor (endogenous in larvae)) (P56634 whole entry): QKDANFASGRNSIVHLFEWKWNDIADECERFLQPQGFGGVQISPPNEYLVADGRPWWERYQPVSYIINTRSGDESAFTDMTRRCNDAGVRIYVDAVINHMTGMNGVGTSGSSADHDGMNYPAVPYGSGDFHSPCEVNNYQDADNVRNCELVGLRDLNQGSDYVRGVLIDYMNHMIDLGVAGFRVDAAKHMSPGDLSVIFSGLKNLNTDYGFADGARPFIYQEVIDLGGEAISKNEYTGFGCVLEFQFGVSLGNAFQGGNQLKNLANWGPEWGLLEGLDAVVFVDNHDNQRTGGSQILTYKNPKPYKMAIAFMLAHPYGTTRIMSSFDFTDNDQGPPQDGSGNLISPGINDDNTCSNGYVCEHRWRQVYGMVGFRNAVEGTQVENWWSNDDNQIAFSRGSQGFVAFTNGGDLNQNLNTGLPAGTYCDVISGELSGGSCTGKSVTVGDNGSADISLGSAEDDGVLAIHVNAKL

Ki [1]: 170 nM
inhibitory power against α-amylase, CNP-G3 assay; susceptibility against that of human salivary and porcine pancreatic α-amylase [2]: 3 fold
B1: α-amylase inhibitor (α-AI) purified from Phaseolus vulgaris Nieddone cultivar (complex)
chain 1: ATETSFIIDAFNKTNLILQGDATVSSNGNLQLSYNSYDSMSRAFYSAPIQIRDSTTGNVASFDTNFTMNIRTHRQAN
chain 2: SAVGLDFVLVPVQPESKGDTVTVEFDTFLSRISIDVNNNDIKSVPWDVHDYDGQNAEVRITYNSSTKVFSVSLSNPSTGKSNNVSTTVELEKEVYDWVSVGFSATSGAYQWSYETHDVLSWSFSSKFINLKDQKSERSN
modifications: native seed glycoprotein (N-glycosylated; sites not given); alpha2beta2 tetramer cleaved after Asn77 (mature numbering, = Asn100 of precursor). Reference sequence P02873 used: Nieddone cultivar …
